Measurements: the supplement of paper PMC9732359
± gives the uncertainty stated by the source.

Assay: protein stability index of a GFP-peptide fusion (yeast GPS) (PSI 1-4); higher = more stable; sorted into four equal gates, so the index is relative within each strain
Method in brief: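 Yeast carrying a pooled library were grown to mid-log phase in leucine-free medium. Each library plasmid expresses Cherry and has a tiled 17-residue yeast protein peptide fused downstream of GFP. Cells were sorted into four equal gates by GFP/Cherry ratio, and plasmids from each gate were PCR-amplified, Illumina-sequenced and assigned to strains by barcode. Summing, across gates, the read frequency times the gate number gave each peptide's protein stability index.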

Sequence | protein stability index (doa10∆) | protein stability index (pdr5∆) | protein stability index (san1∆) | protein stability index (ubr1∆)
VQCPTVIKLAKYPDYFP [ARP9] | 2.15 ± 0.079 | 1.81 ± 0.049 | 2.31 ± 0.092 | 1.82 ± 0.047
VQEQLSKNRIIVEADEK [RET1] | 1.52 ± 0.088 | 1.37 ± 0.052 | 1.65 ± 0.14 | 1.4 ± 0.062
VQGGNAAPSAADIKAVV [RPP2B] | 3.01 ± 0.084 | 3.34 ± 0.07 | 2.88 ± 0.085 | 3.23 ± 0.075
VQHDQILVMETSEEQTK [SWP82] | 2.99 ± 0.092 | 2.91 ± 0.11 | 2.94 ± 0.047 | 2.85 ± 0.076
VQLKDANSQIQAYEEII [YIL149C/MLP2] | 2.69 ± 0.12 | 3.5 ± 0.17 | 3.37 ± 0.23 | 3.45 ± 0.12
VQVKVLGKYEFSKILPA [ESC2] | 2.03 ± 0.15 | 1.99 ± 0.14 | – | 1.83 ± 0.19
VRKAITVLFFIGVRCYE [FAS1] | 1.47 ± 0.087 | 1.77 ± 0.075 | 2.49 ± 0.098 | 1.45 ± 0.064
VRKELRGRAVVLMGKNT [RPP0] | 1.71 ± 0.067 | 1.83 ± 0.094 | 2.12 ± 0.15 | 2.08 ± 0.057
VRLGEEDMIRSVFDATS [RPN1] | – | – | 3.12 ± 0.23 | –
VRLLCRSDGMGNVLLNA [YLR335W/NUP2] | 1.94 ± 0.17 | 2.41 ± 0.13 | 2.02 ± 0.18 | 2.53 ± 0.12
VRNFKEAAKLLVDSLAT [RPN7] | 2.23 ± 0.18 | – | – | –
VRSEMGEPIHKIATRGV [FAS1] | 3.14 ± 0.29 | 3.14 ± 0.28 | – | 2.95 ± 0.089
VRVQRQKKILSIRLKVP [RPL8A] | 1.49 ± 0.032 | 1.28 ± 0.032 | 1.26 ± 0.054 | 1.25 ± 0.025
VSADDFVEEQNVYVLPK [PRP8] | 3.44 ± 0.099 | 3.18 ± 0.11 | 3.07 ± 0.12 | 3.32 ± 0.083
VSALDKCIKYSEKLITK [ECM29] | 3.18 ± 0.14 | 2.15 ± 0.1 | 1.94 ± 0.12 | 1.92 ± 0.093
VSDSEIIDLNLHSFTKQ [POP6] | 2.72 ± 0.061 | 2.85 ± 0.062 | 2.41 ± 0.061 | 2.73 ± 0.044
VSEVAKIMQEATQSGGV [PRE8] | 2.96 ± 0.11 | 2.77 ± 0.17 | 2.77 ± 0.15 | 3.05 ± 0.097
VSGDLNPIHVSRHFASY [FAS1] | 2.51 ± 0.12 | 2.88 ± 0.068 | 2.78 ± 0.079 | 2.81 ± 0.062
VSISTSVKPHVVEPEHM [SIR4] | 2.54 ± 0.078 | 2.99 ± 0.089 | 2.53 ± 0.087 | 2.65 ± 0.052
VSITDAPKIHILDPSTE [YMR129W/POM152] | 1.56 ± 0.055 | 1.95 ± 0.056 | 1.53 ± 0.061 | 1.54 ± 0.061
VSITPGKIEKIAQSKKK [SRP21] | 1.62 ± 0.081 | 1.8 ± 0.086 | 1.36 ± 0.13 | 1.49 ± 0.06
VSKKVDVRRLKKNVWRS [BRN1] | 2.54 ± 0.22 | 1.33 ± 0.13 | – | 3.13 ± 0.13
VSLTKRKQEREITSLRQ [YIL149C/MLP2] | 2.03 ± 0.2 | 2.32 ± 0.14 | 2.45 ± 0.14 | 2.35 ± 0.071
VSNRVAAPARAGAVAPE [RPP0] | 2.06 ± 0.11 | 2.54 ± 0.097 | 2.64 ± 0.11 | 2.56 ± 0.17
VSNSISRLGEENLPGLS [SNU114] | 1.14 ± 0.12 | 1.27 ± 0.15 | 1.07 ± 0.15 | 1.07 ± 0.12

Sequence | protein stability index (doa10∆) | protein stability index (pdr5∆) | protein stability index (san1∆) | protein stability index (ubr1∆)
VSPNDNNSANNNAHSSD [YMR153W/NUP53] | 2.91 ± 0.05 | 2.84 ± 0.06 | 2.75 ± 0.053 | 2.56 ± 0.037
VSPNISSASPSALTSPT [SIR3] | 2.45 ± 0.056 | 2.78 ± 0.074 | 2.95 ± 0.06 | 2.53 ± 0.04
VSQVRVVPNEKADDDSV [ASC1] | 2.72 ± 0.17 | 3.11 ± 0.15 | 3.06 ± 0.11 | 2.6 ± 0.08
VSSKPSKPESSVLQLIV [MED1] | 2.73 ± 0.13 | 3.28 ± 0.11 | 2.94 ± 0.073 | 3.27 ± 0.098
VTAKLLGFTPGELRSYL [FAS1] | 2.91 ± 0.073 | 2.97 ± 0.11 | 2.89 ± 0.1 | 3.1 ± 0.093
VTDDPIWMRGHGTYFLD [RRP4] | 3.22 ± 0.067 | 3.17 ± 0.078 | 3.47 ± 0.056 | 3.07 ± 0.065
VTDLSGKETIARVTGGM [RPS14B] | 3.03 ± 0.087 | 3.09 ± 0.081 | 2.79 ± 0.055 | 2.9 ± 0.061
VTGASQFQRLAPSLTVP [PRE2] | 2.01 ± 0.096 | 1.25 ± 0.095 | 1.36 ± 0.2 | 1.67 ± 0.089
VTIIPLDKIYTRPISSQ [SMC2] | 1.66 ± 0.067 | 1.55 ± 0.084 | 1.64 ± 0.082 | 1.25 ± 0.045
VTKDTKKYSSKNKYGEI [SRP68] | 2.82 ± 0.11 | 2.66 ± 0.099 | 2.52 ± 0.086 | 2.77 ± 0.068
VTLKGAKALESLASCLR [POP1] | 3.12 ± 0.073 | 2.94 ± 0.069 | 2.54 ± 0.078 | 2.74 ± 0.07
VTPEDVMTISSLEQRTL [RPC82] | 3.2 ± 0.084 | 3.1 ± 0.076 | 3.06 ± 0.061 | 3.25 ± 0.073
VTQKDICILGILDLCQL [CSI1] | 2.59 ± 0.091 | 2.85 ± 0.072 | 2.24 ± 0.11 | 1.29 ± 0.15
VTVVDTPPVVVVGVVGY [RPL3] | 1.17 ± 0.051 | 1.41 ± 0.061 | 1.26 ± 0.065 | 1.39 ± 0.048
VVDFKNKENDNVPSTKF [SNF12] | 3.6 ± 0.19 | 3.23 ± 0.25 | 3.04 ± 0.14 | –
VVEPEHMADAKIMPKDI [SIR4] | 3.28 ± 0.1 | 3.35 ± 0.071 | 3.33 ± 0.085 | 3.12 ± 0.081
VVFRDPYKYRLREEIFI [RPL2A] | 2.47 ± 0.12 | 2.66 ± 0.098 | 2.01 ± 0.088 | 2.81 ± 0.087
VVGVVGYVETPRGLRSL [RPL3] | 2.15 ± 0.072 | 2.68 ± 0.049 | 3.15 ± 0.056 | 2.98 ± 0.095
VVIDAFRLIDTGALINN [RPN11] | 1.27 ± 0.16 | 1.78 ± 0.17 | – | 1.11 ± 0.098
VVLGVEKRATSPLLESD [PUP2] | 2.98 ± 0.16 | 2.84 ± 0.13 | 3.15 ± 0.13 | 2.84 ± 0.11
VVTSSVAESFTDEADSS [SNF2] | 3.03 ± 0.095 | 2.98 ± 0.1 | 3.15 ± 0.075 | 3.01 ± 0.084
VVVAETSPEKKDGGDKP [YAR002W/NUP60] | 2.85 ± 0.19 | 3.23 ± 0.24 | 2.72 ± 0.13 | 3.44 ± 0.2
VWGSETVASSKVGYTLP [RPL4A] | 3.03 ± 0.059 | 3.15 ± 0.049 | 3.14 ± 0.034 | 3.156 ± 0.031
VYDFYGRHVATCSSDQH [YGL100W/SEH1] | 2.75 ± 0.068 | 2.32 ± 0.06 | 2.43 ± 0.072 | 2.2 ± 0.049
